Assay results taken from US20170210823A1 (YEDA RESEARCH AND DEVELOPMENT, published 2017).

Key:
[1] = molecular target: T1, catalytic domain of human LOXL2 (545-775) (human, UniProt Q9Y4K0 545-774); experiment: ELISA; plate coated with the catalytic domain of LOXL2, antibody titrated
T1 construct: No vector-derived tag is stated; also called recombinant catalytic domain of LOXL2; catalytic fragment
Procedure: (§1) A 96 well plate (Nunc) was coated with LOXL2 or BSA at 5 μg/ml. After the plate was coated, it was incubated with the antibody for 1 h at 25° C. The bound antibody was detected by peroxidase-conjugated antibody goat anti mouse according to standard procedures. The EC₅₀ was calculated from a four-parametric sigmoidal-curve fitting analysis.

[2] = molecular target: T2, human LOXL2 (full length enzyme) (human, UniProt Q9Y4K0 26-774); experiment: microscale thermophoresis in solution; x axis printed as [LOXL2], nM; LOXL2 construct not specified on the sheet or in the legend
T2 construct: also called lysyl-oxidase like protein-2
T2 sequence: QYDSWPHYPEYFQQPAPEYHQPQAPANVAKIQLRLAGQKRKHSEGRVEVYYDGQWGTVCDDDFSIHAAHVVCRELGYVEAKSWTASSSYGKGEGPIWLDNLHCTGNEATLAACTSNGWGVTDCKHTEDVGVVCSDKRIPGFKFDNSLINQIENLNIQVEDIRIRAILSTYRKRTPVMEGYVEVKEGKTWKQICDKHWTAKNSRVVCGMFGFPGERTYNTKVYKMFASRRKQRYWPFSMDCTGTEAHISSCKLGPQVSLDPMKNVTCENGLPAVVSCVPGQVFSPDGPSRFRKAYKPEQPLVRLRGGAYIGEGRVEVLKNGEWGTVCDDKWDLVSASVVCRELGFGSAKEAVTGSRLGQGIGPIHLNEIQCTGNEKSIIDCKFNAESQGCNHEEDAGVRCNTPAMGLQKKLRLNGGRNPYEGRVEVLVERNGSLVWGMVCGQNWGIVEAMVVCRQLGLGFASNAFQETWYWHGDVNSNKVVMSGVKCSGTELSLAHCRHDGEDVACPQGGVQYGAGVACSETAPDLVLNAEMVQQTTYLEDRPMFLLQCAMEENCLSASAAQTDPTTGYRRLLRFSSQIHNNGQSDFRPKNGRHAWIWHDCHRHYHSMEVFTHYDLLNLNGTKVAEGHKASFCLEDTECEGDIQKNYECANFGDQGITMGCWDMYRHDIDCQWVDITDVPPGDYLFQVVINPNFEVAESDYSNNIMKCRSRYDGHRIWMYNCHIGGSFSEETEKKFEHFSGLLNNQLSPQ

[3] = molecular target: T1, catalytic domain of human LOXL2 …; experiment: ELISA; plate coated with the catalytic domain of LOXL2, antibody titrated, detection with peroxidase-conjugated goat anti-mouse antibody
Procedure: as §1

EC50 (read off the curve) [1]: ~0.4 nM
Kd [2]: 6.97 nM
EC50 [3]: 0.35 nM
B1: GS341 antibody (antibody, V domains shown)
VH: QVQLQQPGAELVRPGASVKLSCKASGYSFTNYWMSWVKQRPGQGLEWIGMIHPSDTDIRLHQKFKDKATLTVDKSSSTAYVQLSSPTSEDSAVYYCARGGQLGPWFAYWGQGTLVTVSA
VL: DIVMTQSPASLAVSLGQRATISCRASKSVSTSGYSYMHWYQQKPGQPPKLLIYLASNLESGVPARFSGSGSGTFTLNIHPVEEEDAATYYCQHSRELPWTFGGGTKLEIKR
notes: also called A341; ab341
